# Experimental data published in patent US20220347267A1, “METHODS TO IMPROVE PATIENT RESPONSE TO IMMUNE CHECKPOINT INHIBITORS AND FUNCTIONAL TESTS TO PREDICT RESPONSE” (Biomarker Strategies, LLC, priority 2019, published 2022).
# B1: IFNγ: human IFNγ, modulator (10 ng/ml; Sigma Aldrich) (protein, UniProt P01579 24-161, looked up)
# Interferon gamma: QDPYVKEAENLKKYFNAGHSDVADNGTLFLGILKNWKEESDRKIMQSQIVSFYFKLFKNFKDDQSIQKSVETIKEDMNVKFFNSNKKKRDDFEKLTNYSVTDLNVQRKAIHELIQVMAELSPAAKTGKRKRSQMLFRG
# How the values were obtained:
# SKMES1 cells = assay: Western blot of secreted and intact PDL1 in media and lysate; assay type: cell-based, human; details: 10 ng/mL IFNg for 24 h, concentrated media and lysate, antibody clone E1J2J
# Description: Different forms of PDL1 can be expressed at baseline as well as after modulation, and the abundance of each form will impact response to therapy. The two major forms are membrane bound and soluble (secreted or intracellular compartments). The relative ratios of the forms, and their cellular locations, can be changed by a modulator and will require different strategies for optimal ICI therapy. As way of example, the cell line SKMES1 was treated with vehicle or 10 ng/mL IFNg for 24 h. After treatment, media was collected and concentrated using an Amicon ultra 0.5 mL centrifugal filter with a 10 kDa cutoff. The retentate, containing proteins >10 kDa, was recovered in a clean tube at 14000 rpm for 5 min. Simultaneously, lysates of the same cells were made. PDL1 was then detected using 10% Tris-Glycine SDS gels and PVDF membranes. The western blot was carried out using 5% non-fat dry milk in TBST for 1h, followed by incubation with primary antibody against PDL1 (clone E1J2J; raised to the extracellular portion of PDL1) in 2% BSA for overnight, then anti-rabbit HRP secondary antibody before using a chemiluminescent reagent (Bio-Rad). […] Thus, by using westerns where the intact and secreted forms of PDL1 are first resolved by MW and different types of sample/resource material (media vs lysate or blood/plasma vs tumor), the response to therapy can be predicted. […]
# [1] = system: various NSCLC, HNSCC, breast cancer, melanoma, colorectal cancer, and pancreatic cancer cell lines; assay: PD-L1 western blot after modulators, summary over all samples; assay type: cell-based, human; details: depending on the sample, summary of Table 3
# From the text: Cell lines were acquired from ATCC, Sigma, or DSMZ. Human non-small cell lung carcinoma (NSCLC) cell lines H292 (ATCC no. CRL-1848.), H1299 (ATCC no. CRL-5803), H520 (ATCC no. CRL-5811), CALU6 (ATCC no. HTB-56), H1975 (ATCC no. CRL-5908), H460 (ATCC no. HTB-177), H2126 (ATCC no. CCL-256), H1650 (ATCC no. CRL-5883), and H2087 (ATCC no. CRL-5922) were used for this experiment along with head and neck squamous cell carcinoma (HNSCC) cell lines BHY (DSMZ ACC 404), CAL27 (ATCC no. CRL-2095), KYSE410 (Sigma), and A253 (ATCC no. HTB-41), melanoma cell lines A375 (ATCC no. CRL-1619), COL0853 (Sigma), and MM127 (Sigma) pancreatic cancer cell lines BXPC3 (ATCC no. CRL-1687), colorectal cancer cell lines […], HCT116 (ATCC no. CCL-247EMT), and breast cancer cell lines BT549 (ATCC no. HTB-122), BT20 (ATCC no. HTB-19), and T47D (ATCC no. HTB-133). Cells were maintained in manufacturer-recommended conditions at 37° C. inside humidified 5% CO2 incubators. Sub-cultivation and harvesting for all cell lines were performed using Accutase (GIBCO Life Technologies; cat. no. A1110501) at 37° C. for 10 minutes. Cell viability was measured using trypan blue exclusion staining in conjunction with the Countess II Automated Cell Counter (Thermo Fischer Scientific; cat. no. AMQAX1000). Measurements were made in duplicate and the average number of viable cells was recorded prior to experiments.
# T7039), and IL-10 (50 ng/ml; Sigma Aldrich cat. no. SRP3071) were administered to cell lines for various times including 30 minutes, 3 hour, and 24 hour time intervals prior to cell lysis and protein extraction.
# To determine the effects of the aforementioned molecules on the modulation of PD-L1, we selected various NSCLC, HNSCC, breast cancer, melanoma, colorectal cancer, and pancreatic cancer cell lines as examples. Other diseases or cell lines could be used readily as could more complex samples such as cells isolated from xenografts and clinical samples. Cells were plated, for three different time points (30 minutes, 3 hours, and 24 hours), inside 6-well petri dishes with 2 mL of appropriate medium. Plates were incubated for 24 hours in 5% CO2 incubators at 37° C. After 24 hours, each 6-well plate was washed with PBS (Gibco Life Technologies, cat. no. 10010023) followed by fresh media being added along with each cell line's vehicle control or appropriate modulator for each specific time point, and were placed in CO2 incubators until their modulation time point was reached. Other conditions can be readily used, such as processing on automated systems such as SnapPath. At the end of each time point, while keeping plates on ice, cell lysis was conducted by aspirating culture medium from each plate, washing of each plate three times with 5 ml of cold PBS (Gibco Life Technologies, cat. no. 10010023) and culminated with the addition of cold 1× lysis buffer containing (Cell Signaling, cat. no. 9803 S) protease inhibitor cocktail (Cell Signaling, cat. no. 5871S), phosphatase inhibitor cocktail (Cell Signaling, cat. no. 5870S), and PMSF (Fisher Scientific, cat. no. ICN19538101). Plates were then placed on ice for ten minutes, swirling each plate intermittently. Aliquots of protein lysates were prepared and then stored at −80° C. until protein quantification and Western blot analysis was to be conducted. The protein concentration of each lysate was analyzed by using the Pierce 660 Protein Assay Reagent (Thermo Fisher Scientific, cat. no. 22660) and testing of each sample was conducted in duplicate. Two μg of protein was then loaded per lane into 10% Midi-PROTEAN TGX Precast Gels (Bio Rad, cat. no. 5671034) along with Kaleidoscope Prestained Protein Standard (BioRad, cat. no. 1610375) which ran at 220V for 45 minutes. Proteins were transferred to mini-PVDF membranes (BioRad, cat. no. 1704156) in 3 minutes using the Trans-Blot Turbo Transfer System (BioRad, cat. no. 1704150EDU).
molecule,measurement,setting,value
B1,expression of secreted and intact PDL1,SKMES1 cells,detected the expression of secreted and intact PDL1
same,regulation of PD-L1 across samples,[1],only led to upregulation
